Molecular target: native Dictyostelium discoideum pre-60S ribosomal subunit (Dictyostelium discoideum) (UniProt P34113)
Assay: cryo-EM structure

Chain of Dictyostelium discoideum eIF6 (eukaryotic initiation factor 6), endogenous (Q551M2 whole entry): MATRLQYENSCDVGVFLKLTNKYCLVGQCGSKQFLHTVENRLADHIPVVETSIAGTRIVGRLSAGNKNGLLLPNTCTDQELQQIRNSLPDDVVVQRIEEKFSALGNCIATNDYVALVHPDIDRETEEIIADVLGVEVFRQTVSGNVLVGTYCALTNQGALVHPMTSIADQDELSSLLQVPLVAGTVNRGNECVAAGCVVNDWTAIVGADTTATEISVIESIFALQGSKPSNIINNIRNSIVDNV
Chain of native Dictyostelium discoideum pre-60S ribosomal subunit (Dictyostelium discoideum) (P34113 whole entry, looked up, tested part not stated): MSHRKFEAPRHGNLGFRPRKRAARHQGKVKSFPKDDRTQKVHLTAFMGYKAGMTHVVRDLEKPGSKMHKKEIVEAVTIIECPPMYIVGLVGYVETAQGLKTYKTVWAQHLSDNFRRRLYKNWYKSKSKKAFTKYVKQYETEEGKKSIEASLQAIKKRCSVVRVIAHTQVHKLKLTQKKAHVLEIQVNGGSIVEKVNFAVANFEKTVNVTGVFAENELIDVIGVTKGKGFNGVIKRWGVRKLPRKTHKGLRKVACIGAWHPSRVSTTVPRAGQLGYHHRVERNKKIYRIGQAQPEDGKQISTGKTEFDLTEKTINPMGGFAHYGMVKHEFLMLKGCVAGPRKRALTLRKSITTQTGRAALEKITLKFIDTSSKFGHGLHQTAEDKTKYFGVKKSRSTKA

## Dictyostelium discoideum eIF6 (eukaryotic initiation factor 6), endogenous (from UniProt Q551M2 1-244) (natural protein)
  percent of native pre-60S subunits carrying eIF6: 85%
